Assay results as given in patent US20030157554A1 (published 2003).

Legend:
[1] = biological target: T1, S100A9 (Genbank ID: M26311) (human, UniProt P06702 1-114); test: Y2H 1x1 mating, binder AD fusion, target BD fusion
T1 construct: range 1-114; Prey from liver and muscle libraries
T1 sequence (looked up): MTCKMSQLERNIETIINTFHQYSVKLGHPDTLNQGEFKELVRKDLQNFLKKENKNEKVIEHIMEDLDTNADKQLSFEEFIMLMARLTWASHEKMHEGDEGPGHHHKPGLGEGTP

[2] = biological target: S100A6 (Genbank ID: M14300) (human, UniProt P06703 1-90); test: Y2H 1x1 mating, binder AD fusion, target BD fusion
S100B-1 = biological target: T2, S100B-1 (human, UniProt P04271 1-92); test: Y2H, baits tested against each other
T2 construct: Full-length bait; also called full length S100B
T2 sequence (looked up): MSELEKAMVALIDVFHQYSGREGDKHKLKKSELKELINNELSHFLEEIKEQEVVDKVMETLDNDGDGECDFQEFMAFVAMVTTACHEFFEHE

[3] = biological target: the molecule itself; test: Y2H, baits tested against each other
S100A1-1 = biological target: T3, S100A1-1 (human, UniProt P23297 1-94); test: Y2H, baits tested against each other
T3 construct: Full-length bait; also called full length S100A1
T3 sequence (looked up): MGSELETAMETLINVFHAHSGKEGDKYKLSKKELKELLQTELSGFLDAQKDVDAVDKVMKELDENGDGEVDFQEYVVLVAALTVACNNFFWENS

[4] = biological target: the molecule itself; test: Y2H 1x1 mating, binder AD fusion, target BD fusion
[5] = biological target: T4, STAU (Genbank ID: AF061939) (human, UniProt O95793 6-577); test: Y2H 1x1 mating, binder AD fusion, target BD fusion
T4 construct: range 6-578; Prey from brain library; also called Staufen
T4 sequence (looked up): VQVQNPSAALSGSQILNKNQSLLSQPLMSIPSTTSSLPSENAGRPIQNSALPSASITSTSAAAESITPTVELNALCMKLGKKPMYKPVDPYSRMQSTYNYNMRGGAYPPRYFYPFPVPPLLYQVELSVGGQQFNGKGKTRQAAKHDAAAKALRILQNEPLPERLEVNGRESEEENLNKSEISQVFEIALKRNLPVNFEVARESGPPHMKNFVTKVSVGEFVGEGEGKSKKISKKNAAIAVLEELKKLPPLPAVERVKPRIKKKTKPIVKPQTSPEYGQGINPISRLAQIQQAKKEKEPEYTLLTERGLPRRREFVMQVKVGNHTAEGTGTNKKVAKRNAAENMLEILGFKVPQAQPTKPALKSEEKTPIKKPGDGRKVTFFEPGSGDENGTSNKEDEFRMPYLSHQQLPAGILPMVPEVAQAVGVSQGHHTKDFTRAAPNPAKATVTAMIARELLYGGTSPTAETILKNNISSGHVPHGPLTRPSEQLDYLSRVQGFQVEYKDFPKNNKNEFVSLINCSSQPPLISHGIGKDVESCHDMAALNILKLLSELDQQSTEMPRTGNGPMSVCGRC

Measured: binding result

B1: S100B-2 (other, human, UniProt P04271 1-62, looked up)
chain: MSELEKAMVALIDVFHQYSGREGDKHKLKKSELKELINNELSHFLEEIKEQEVVDKVMETLD
notes: Truncated bait; also called truncated S100B
no binding: [1] | [2] | S100B-1 | [3] | S100A1-1

B2: PPP1R5 (Genbank ID: Y18207) (other, human, UniProt Q9UQK1 1-317, looked up)
chain: MSCTRMIQVLDPRPLTSSVMPVDVAMRLCLAHSPPVKSFLGPYDEFQRRHFVNKLKPLKSCLNIKHKAKSQNDWKCSHNQAKKRVVFADSKGLSLTAIHVFSDLPEEPAWDLQFDLLDLNDISSALKHHEEKNLILDFPQPSTDYLSFRSHFQKNFVCLENCSLQERTVTGTVKVKNVSFEKKVQIRITFDSWKNYTDVDCVYMKNVYGGTDSDTFSFAIDLPPVIPTEQKIEFCISYHANGQVFWDNNDGQNYRIVHVQWKPDGVQTQMAPQDCAFHQTSPKTELESTIFGSPRLASGLFPEWQSWGRMENLASYR
notes: Prey from brain, liver and muscle libraries
no binding: [4] | [5]
